Source: PMC5271678

Test system: GST-CELF1 (recombinant human CELF1) (Homo sapiens)
Test: EMSA
Conditions: 3 fmol RNA with increasing GST-hCELF1, 5% native polyacrylamide gel; buffer, salt, pH and temperature not given (cited ref 31)

Substance	Kd [µM]
7SL RNA fragment (negative control)	> 0.3
Srp9 3'UTR fragment	0.00084
Srp14 3'UTR fragment	0.0124
Srp19 3'UTR fragment	0.0338
Srp54 3'UTR fragment	0.0135
Srp68 3'UTR fragment	0.00164
Srp72 3'UTR fragment	0.00053
